Drawing on article PMC11039998 (Nucleic Acids Research, 2024), this text covers Kd for two molecules.

Where no end group is shown, it is not given here.

One may read the Kd as the free concentration of one partner at which half of the binding sites on the other are occupied at equilibrium, for simple one-to-one binding. A lower Kd goes with tighter binding.

This assay has as its target Methyl binding domain (MBD) of MeCP2, wild-type (UniProt P51608 90-162). Briefly: ITC. In general terms: In ITC the heat of successive injections is recorded.

Methyl binding domain (MBD) of MeCP2, wild-type, sequence (P51608 90-162): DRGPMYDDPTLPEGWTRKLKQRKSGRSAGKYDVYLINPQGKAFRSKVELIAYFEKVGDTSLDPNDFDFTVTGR

B1: H3-derived peptide of the K27 region, trimethylated at K27 (peptide)
peptide: TKAARK(Me3)SAPAT
The molecule B1 registered a Kd of 12 µM.

B2: H3-derived peptide of the K27 region, wild-type (peptide)
peptide: Ac-TKAARKSAPAT-NH2
B2: the Kd is 3.4 µM.
